Reference: patent publication US5919694A, “Mutant phosphoenolpyruvate carboxylase, its gene, and production method of amino acid” (Ajinomoto Co., Inc., priority 1993, dated 1999)

Assays:
Escherichia coli HB101 = assay: Growth inhibition of Escherichia coli HB101 by aspartic acid analog compounds and recovery by additives; format: cell-based; conditions: E. coli HB101 in M9 medium, absorbance at 660 nm; FIGS. 1-3
Description: It is proposed, as a general structure of an inhibitor of phosphoenolpyruvate carboxylase, that a C4 dicarboxylic acid structure is essentially provided. From such a viewpoint, various compounds were subjected to screening by the present inventors. Escherichia coli HB101 was cultivated in an LB medium, and transferred to M9 media (containing 20 μg/ml of thiamine and 3 μg/ml of each of Leu and Pro) containing any one of DL-2-amino-4-phosphonobutyric acid, bromosuccinic acid, meso-2,3-dibromosuccinic acid, 2,2-difluorosuccinic acid, 3-bromopyruvic acid, α-ketobutyric acid, α-ketoadipinic acid DL-threo-β-hydroxyaspartic acids L-aspartic acid β-metyl ester α-metyl-DL-aspartic acid, 2,3-diaminosuccinic acid or aspartic acid-β-hydrazide, and absorbance of the medium was measured at 660 nm with the passage of time, thereby growth was monitored.
Further, when these compounds were present at their growth inhibitory concentrations, it was investigated whether or not the inhibition was recovered by addition of nucleic acids (each of uridine, adenosine: 10 mg/dl), glutamic acid or amino acids of the aspartic acid family (Asp: 0.025%, each of Met, Thr, Lys: 0.1%).
Further, growth recovery of Escherichia coli, in the case of addition of the aforementioned inhibition recovering substances alone or as a mixture of 2 species or 3 species, is shown in FIGS. 4-6. […]

[1] = test system: phosphoenolpyruvate carboxylase; assay: Sensitivity of phosphoenolpyruvate carboxylase activity to aspartic acid; format: biochemical, Escherichia coli
Text: When the microorganism transformed with the DNA sequence of the present invention as described above is cultivated, and this DNA sequence is expressed, then a mutant enzyme is obtained. It becomes apparent, by measuring the activity by adding aspartic acid to an enzyme reaction system, whether or not the mutant enzyme thus obtained has desensitized feedback inhibition by aspartic acid. It is possible for the measurement of the enzyme activity to use a spectrometric method (Yoshinage, T., Izui, K. and Katsuki, H., J. Biochem., 68, 747-750 (1970)) and the like.
(§1) Sensitivity to aspartic acid was investigated in accordance with a known method (Yoshinaga, T., Izui, K. and Katsuki, H., J. Biochem., 68, 747-750 (1970)). Namely, as a result of measurement of the enzyme activity produced by each of the transformants or Escherichia coli harboring pS2 in the presence of acetyl-coenzyme A known to affect the activity in an activity measurement system at a concentration of 0.1 mM or 1 mM, sensitivity to aspartic acid was measured as shown in FIGS. 9 and 10.
as §1, with “activity” for “activity produced by each of the transformants or Escherichia coli harboring pS2”, “of 1” for “of 0.1”, “or 2” for “or 1”, “in FIG. 12.” for “in FIGS. 9 and 10.”
as §1, with “activity” for “activity produced by each of the transformants or Escherichia coli harboring pS2”, “of 1” for “of 0.1”, “or 2” for “or 1”, “in FIG. 13.” for “in FIGS. 9 and 10.”

Molecule | growth inhibition of Escherichia coli (Escherichia coli HB101) | enzyme activity at high aspartic acid concentration (sensitivity to aspartic acid) ([1]; Example 2, acetyl-coenzyme A 0.1 mM or 1 mM, FIGS. 9 and 10) | enzyme activity at high aspartic acid concentration (sensitivity to aspartic acid) ([1]; Example 6 <3>, pT2R438C (438th Arg to Cys), acetyl-coenzyme A 1 mM or 2 mM, FIG. 12) | enzyme activity at high aspartic acid concentration (sensitivity to aspartic acid) ([1]; Example 6 <5>, pT2K620S, acetyl-coenzyme A 1 mM or 2 mM, FIG. 13)
N[C@H](C(=O)O)[C@H](O)C(=O)O (relative stereo) [DL-threo-β-hydroxyaspartate] | growth inhibition | – | – | –
NNC(=O)CC(N)C(=O)O (stereo not drawn) [aspartate-β-hydrazide] | growth inhibition | – | – | –
wild type enzyme: wild type phosphoenolpyruvate carboxylase of Escherichia coli, expressed from pS2 or pT2 (protein, UniProt P00864 1-883, looked up) Phosphoenolpyruvate …: MNEQYSALRSNVSMLGKVLGETIKDALGEHILERVETIRKLSKSSRAGNDANRQELLTTLQNLSNDELLPVARAFSQFLNLANTAEQYHSISPKGEAASNPEVIARTLRKLKNQPELSEDTIKKAVESLSLELVLTAHPTEITRRTLIHKMVEVNACLKQLDNKDIADYEHNQLMRRLRQLIAQSWHTDEIRKLRPSPVDEAKWGFAVVENSLWQGVPNYLRELNEQLEENLGYKLPVEFVPVRFTSWMGGDRDGNPNVTADITRHVLLLSRWKATDLFLKDIQVLVSELSMVEATPELLALVGEEGAAEPYRYLMKNLRSRLMATQAWLEARLKGEELPKPEGLLTQNEELWEPLYACYQSLQACGMGIIANGDLLDTLRRVKCFGVPLVRIDIRQESTRHTEALGELTRYLGIGDYESWSEADKQAFLIRELNSKRPLLPRNWQPSAETREVLDTCQVIAEAPQGSIAAYVISMAKTPSDVLAVHLLLKEAGIGFAMPVAPLFETLDDLNNANDVMTQLLNIDWYRGLIQGKQMVMIGYSDSAKDAGVMAASWAQYQAQDALIKTCEKAGIELTLFHGRGGSIGRGGAPAHAALLSQPPGSLKGGLRVTEQGEMIRFKYGLPEITVSSLSLYTGAILEANLLPPPEPKESWRRIMDELSVISCDVYRGYVRENKDFVPYFRSATPEQELGKLPLGSRPAKRRPTGGVESLRAIPWIFAWTQNRLMLPAWLGAGTALQKVVEDGKQSELEAMCRDWPFFSTRLGMLEMVFAKADLWLAEYYDQRLVDKALWPLGKELRNLQEEDIKVVLAIANDSHLMADLPWIAESIQLRNIYTDPLNVLQAELLHRSRQAEKEGQEPDPRVEQALMVTIAGIAAGMRNTG | – | loses its activity | substantially loses its activity | substantially loses its activity
